Tested on: E. coli ribosomal proteins
Experiment: Immunodotblot binding to HPLC-separated ribosomal proteins
Conditions: 10 μg/ml, 4° C. overnight, dot blot
Description: The question whether CIDAMP-dependent morphological changes in bacteria are direct or indirect was addressed by testing the hypothesis that CIDAMPs directly bind to ribosomes and ribosomal proteins. For this purpose, ribosomes of E. coli were separated and partially purified by SulfoLink®-coupling resin-chromatography (Maguire et al., 2008, RNA, 14, 188-195) followed by reversed phase high performance liquid chromatography (HPLC) using an Aeris 3.6 μm C18 widepore RP-HPLC column (Phenomenex) and an increasing gradient of acetonitrile (ACN, max.: 80% v/v) in aqueous 0.1% trifluoroacetic acid.
Aliquots of each HPLC fraction were lyophilized, the residues dissolved in 5 μl water each and then applied to a nitrocellulose membrane. After blocking with 5% bovine serum albumin in PBS and washing with PBS, biotinylated rhHRNR2591-2694, a 103 amino acid fragment of hornerin, (10 μg/ml) was added and incubated at 4° C. overnight. After 4-times washing, Strep-Tactin® (1:200; iba lifescience) in PBS was added, incubated for 1 h and then, after 6 times washing with PBS, substrate was added and the blots developed.

B1: biotinylated rhHRNR2591-2694: biotinylated rhHRNR2591-2694, a 103 amino acid fragment of hornerin (protein)
chain: SQHGSGSGHSSGYGQHGSRSGQSSRGERHGSSSGSSSHYGQHGSGSRQSSGHGRQGSGSGQSPSRGRHGSGLGHSSSHGQHGSGSGRSSSRGPYESRLGHSSVF
modifications: biotinylated (position not given)
notes: biotinylated rhHRNR2591-2694, a 103 amino acid fragment of hornerin
binding to ribosomal proteins (in words): specific binding

Reference: US11479587B2, “Cationic intrinsically disordered antimicrobial peptides” (priority 2016, dated 2022)
